Laboratory results: US20210024639A1 (AGOMAB THERAPEUTICS, published 2021)
Numbering of substitutions follows the chain as printed.

B1: chimeric llama-human IgG1 mAb 71D4 (antibody, V domains shown)
VH: ELQLVESGGGLVQPGGSLRLSCAASGFTFSGYGMSWVRQAPGKGLEWVSDINSGGGSTSYADSVKGRFTISRDNAKNTLYLQMNSLKPEDTAVYYCAKDMRLYLARYNDYEAWDYWGQGTQVTVSS
VL: SSALTQPSALSVTLGQTAKITCQGGSLGSSYAHWYQQKPGQAPVLVIYDDDSRPSGIPERFSGSSSGGTATLTISGAQAEDEGDYYCQSADSSGNAAVFGGGTHLTVL
B2: chimeric llama-human IgG1 mAb 71A3 (antibody, V domains shown)
VH: EVQLVESGGGLVQPGGSLRLSCAASGFSFKDYDITWVRQAPGKGLEWVSTITSRSGSTSYVDSVKGRFTISGDNAKNTLYLQMNSLKPEDTAVYYCAKVYATTWDVGPLGYGMDYWGKGTLVTVSS
VL: B1 VL with S2Y, A3E

Assays:
[1] = molecular target: human MET ECD mutant H (mutations 2, 4) (human) (UniProt P08581); assay: ELISA, MET ECD mutant in solid phase, mAb 0-50 nM
[2] = molecular target: human MET ECD mutant D (mutations 1, 2) (human) (UniProt P08581); assay: ELISA, MET ECD mutant in solid phase, mAb 0-50 nM
[3] = molecular target: human MET ECD mutant E (mutations 2, 3, 4) (human) (UniProt P08581); assay: ELISA, MET ECD mutant in solid phase, mAb 0-50 nM
[4] = molecular target: human MET ECD mutant A (mutations 1, 2, 3) (human) (UniProt P08581); assay: ELISA, MET ECD mutant in solid phase, mAb 0-50 nM
[5] = molecular target: T1, native human MET on living human cells (human, UniProt P08581 25-1390); assay: flow cytometry, A549 cells
T1 construct: whole, on cells; also called Human cells (A549); HPAF-II
In short: (§1)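 Binding of chimeric antibodies to native MET on the cell surface is measured by flow cytometry after detection with a phycoerythrin-conjugated anti-human IgG1 reagent. Maximal binding (EMAX) is reported for each antibody.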

[6] = molecular target: T2, human MET extracellular domain (ECD) (human, UniProt P08581 25-932); assay: ELISA, MET ECD in solid phase, mAb 0-50 nM
T2 construct: range 1-932; recombinant ECD; also called hMET; human MET ECD
Method: Using human MET as a template, we mutagenized each of these residues in different permutations, generating a series of MET mutants that are fully human except for specific residues, which are llama. Next, we tested the affinity of selected SEMA-binding mAbs (71D6, 71C3, 71D4, 71A3, 71G2) and PSI-binding mAbs (76H10 and 71G3) for these MET mutants by ELISA. To this end, the various MET proteins were immobilized in solid phase (100 ng/well in a 96-well plate) and then exposed to increasing concentrations of antibodies (0-50 nM) solution. […] Wild-type human MET was used as positive control.
TABLE 18 The epitopes of MET responsible for agonistic antibody binding represent residues conserved among H. sapiens, M. musculus, R. norvegicus, M. fascicularis but not among the same species and L. glama. The relevance of residues conserved among human, mouse, rat, cynomolgus monkey but not llama MET for binding to agonistic mAbs was tested by ELISA. Wild-type (WT) or mutant (MT) human MET ECD was immobilized in solid phase and exposed to increasing concentrations of mAbs in solution. […] All binding values were normalized to the WT protein and are expressed as % binding (EMAX) compared to WT MET.

[7] = molecular target: T3, human MET-Fc chimeric protein (R&D Systems) (human, UniProt P08581 25-932); assay: competition ELISA, hMET-Fc in solid phase, competitor 0.3 nM biotinylated hHGF
T3 construct: extracellular domain; bought (R&D Systems); also called hMET; not shown: Fc portion of human IgG1
In short: (§2)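 An ELISA format measured how well mAbs (0-120 nM) displaced N-terminus-biotinylated HGF from plate-bound receptor. Results are given as the concentration producing 50% competition and as IMAX, the saturating maximum percentage.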

[8] = molecular target: T4, mouse MET-Fc chimeric protein (R&D Systems) (mouse, UniProt P16056 25-929, limits assumed); assay: competition ELISA, mMET-Fc in solid phase, competitor 0.3 nM biotinylated mHGF
T4 construct: bought (R&D Systems); also called mMET; not shown: Fc
In short: as §2

[9] = molecular target: T5, native mouse MET on living mouse cells (mouse, UniProt P16056 25-1379); assay: cell-based or functional assay
[10] = molecular target: T1, native human MET on living human cells; assay: cell-based or functional assay
[11] = molecular target: T5, native mouse MET on living mouse cells; assay: cell-based or functional assay; remark: listed apart in the source
[12] = molecular target: T1, native human MET on living human cells; assay: cell-based or functional assay; remark: listed apart in the source
[13] = molecular target: T5, native mouse MET on living mouse cells; assay: flow cytometry, MLP29 cells
In short: as §1

Binder	% binding (EMAX) compared to WT MET [1]	% binding (EMAX) compared to WT MET [2]	% binding (EMAX) compared to WT MET [3]	% binding (EMAX) compared to WT MET [4]	EMAX (% relative to control) [5]	% binding (EMAX) compared to WT MET [6]	IMAX (maximum % competition) [7]	IMAX (maximum % competition) [8]	protection from staurosporine, viability EC50, MLP29 [9]	protection from staurosporine, viability EMAX, MLP29 [9]	protection from staurosporine, viability EC50, MCF10A [10]	protection from staurosporine, viability EMAX, MCF10A [10]	cell scattering score, MLP29, 0.001 nM [11]	cell scattering score, MLP29, 0.004 nM [11]	cell scattering score, MLP29, 0.012 nM [11]	cell scattering score, MLP29, 0.037 nM [11]	cell scattering score, MLP29, 0.111 nM [11]	cell scattering score, MLP29, 0.333 nM [11]	cell scattering score, MLP29, 1.000 nM [11]	cell scattering score, MLP29, 3.000 nM [11]	further results
B1	58.7%	120%	57.2%	114%	107%	100%	95.6%	91.3%	29.8 nM	52.1%	30.2 nM	51.7%	0 score 0-4	0 score 0-4	0 score 0-4	0 score 0-4	0 score 0-4	0 score 0-4	1 score 0-4	2 score 0-4	cell scattering score, MLP29, 9.000 nM [11]: 2 score 0-4; cell scattering score, HPAF-II, 0.001 nM [12]: 0 score 0-4; cell scattering score, HPAF-II, 0.004 nM [12]: 0 score 0-4; cell scattering score, HPAF-II, 0.012 nM [12]: 0 score 0-4; cell scattering score, HPAF-II, 0.037 nM [12]: 0 score 0-4; cell scattering score, HPAF-II, 0.111 nM [12]: 0 score 0-4; cell scattering score, HPAF-II, 0.333 nM [12]: 0 score 0-4; cell scattering score, HPAF-II, 1.000 nM [12]: 1 score 0-4; cell scattering score, HPAF-II, 3.000 nM [12]: 2 score 0-4; cell scattering score, HPAF-II, 9.000 nM [12]: 2 score 0-4; EMAX (% relative to control) [13]: 94.8%
B2	76.7%	128%	65.4%	117%	161%	100%	93.4%	87.7%	< 0.5 nM	70.5%	< 0.5 nM	71.7%	0 score 0-4	0 score 0-4	2 score 0-4	3 score 0-4	3 score 0-4	4 score 0-4	4 score 0-4	4 score 0-4	cell scattering score, MLP29, 9.000 nM [11]: 4 score 0-4; cell scattering score, HPAF-II, 0.001 nM [12]: 0 score 0-4; cell scattering score, HPAF-II, 0.004 nM [12]: 0 score 0-4; cell scattering score, HPAF-II, 0.012 nM [12]: 2 score 0-4; cell scattering score, HPAF-II, 0.037 nM [12]: 3 score 0-4; cell scattering score, HPAF-II, 0.111 nM [12]: 3 score 0-4; cell scattering score, HPAF-II, 0.333 nM [12]: 4 score 0-4; cell scattering score, HPAF-II, 1.000 nM [12]: 4 score 0-4; cell scattering score, HPAF-II, 3.000 nM [12]: 4 score 0-4; cell scattering score, HPAF-II, 9.000 nM [12]: 4 score 0-4; EMAX (% relative to control) [13]: 144%
